The results in this text go back to the supplement of paper PMC12042874.

± gives the uncertainty stated by the source.

This series can be described thus: amyloid nucleation score (Sup35N fusion, yeast selection) (log enrichment); library NNK3; higher = more nucleation; inactive = no reads after selection. In a few lines:
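Plasmid inserts were Illumina-sequenced at input and output from psi-negative yeast expressing Sup35N fused to peptides of 20 random codons. The yeast were induced with 100 μM copper sulfate for 24 hours and grown 7 days at 30°C on medium lacking adenine and uracil, and sequences with under 100 input reads were excluded. Nucleation score is the DiMSum log enrichment of output over input reads, centred on the mode score of non-aggregating sequences.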
In the case of LWIVLQVHSFDVRFAQGFHI, the amyloid nucleation score was found to be 0.613 ± 0.17.

Consider LWLMVFWKINGNMLGCHPEM, for which the amyloid nucleation score result was “inactive”.

For the substance LWQNSDLSSSDEYGQRFGKR, the amyloid nucleation score is -0.706 ± 1.

Turning to LWRLRAIWVNNVMAVRKFVG, the amyloid nucleation score was -0.68 ± 1.

With LWVRKDERGEYI, the amyloid nucleation score entry is “inactive”.

As to LWYGKYFFIDKRQA, the amyloid nucleation score turned out to be 0.359 ± 0.23.

Take LYAQNLV: the amyloid nucleation score entry is “inactive”.

As to LYDCRRGNLVTSCWNKCCLP, the amyloid nucleation score entry is “inactive”.

In the case of LYDLTGPVSNLTISLLNVEY, the amyloid nucleation score entry is “inactive”.

As to LYDSSYMVDIDSYTLENCRS, the amyloid nucleation score entry was “inactive”.

Take LYFRLPNASAVDIIEIGFPV: the amyloid nucleation score was found to be 0.039 ± 0.55.

Regarding LYGGLEHESIMFIRCSGWIC, the amyloid nucleation score result was “inactive”.

For the substance LYGGTAFLLSFCVAE, the amyloid nucleation score entry is “inactive”.

As for LYLYSWFC, the amyloid nucleation score result is “inactive”.

With LYMNFSMDGIASVSLGVLRL, the amyloid nucleation score worked out at 0.633 ± 0.19.

Turning to LYMYLGRVCMWHLRCHKRYN, the amyloid nucleation score result was “inactive”.

In the case of LYNGGI, the amyloid nucleation score entry is “inactive”.

In the case of LYPVTKR, the amyloid nucleation score result was “inactive”.

With LYRPCLWSDWRT, the amyloid nucleation score result was “inactive”.

For LYSETWEY, the amyloid nucleation score result is “inactive”.

Consider LYSGFRGMPKYTDKNCMGRV, for which the amyloid nucleation score entry was “inactive”.

Take LYSIWGRNRGHGMIGWDPLT: the amyloid nucleation score result is “inactive”.

As to LYSLT, the amyloid nucleation score result is “inactive”.

In the case of LYSLVFWNDSSCRSRLVTWF, the amyloid nucleation score entry is “inactive”.

As for LYSVFVRRSCLNG, the amyloid nucleation score result is “inactive”.

As to LYTDDAPGDVFLFNAFRVFH, the amyloid nucleation score result is “inactive”.

In the case of LYVATS, the amyloid nucleation score result is “inactive”.

Consider LYVHFSILCTFGWSVPNQEG, for which the amyloid nucleation score result is “inactive”.

With LYYNYRGGYVYKNRDEVTLF, the amyloid nucleation score entry is “inactive”.

In the case of MALSRILTALVVLLLTVVVC, the amyloid nucleation score result was “inactive”.

As for MAYLNLVQV, the amyloid nucleation score result was “inactive”.

Consider MCFGKYLSL, for which the amyloid nucleation score entry was “inactive”.

On to MCGDKSV, for which the amyloid nucleation score result is “inactive”.

Take MCIHSITECRS: the amyloid nucleation score entry was “inactive”.

With MCILQGLFDVNSLTGLWVAS, the amyloid nucleation score result is “inactive”.

Take MCPPVSGNG: the amyloid nucleation score entry was “inactive”.

Take MCSRCLFHCGLVVCRVVVPA: the amyloid nucleation score result is “inactive”.

Turning to MDAISFQRDMMFNGGFFCAM, the amyloid nucleation score entry was “inactive”.

For MDEGIVKTELFYRWRISRLG, the amyloid nucleation score result is “inactive”.

Take MDIRERRRFFSNIRRVRYLK: the amyloid nucleation score result is “inactive”.

MDRIFWD: the amyloid nucleation score entry was “inactive”.

Consider MDSLGW, for which the amyloid nucleation score result is “inactive”.

With MDVKKRQSSGVALRFELLDG, the amyloid nucleation score result was “inactive”.

Take MDVWASYMTVSESVCSSLVR: the amyloid nucleation score result is “inactive”.

Consider MEINAVPD, for which the amyloid nucleation score entry was “inactive”.

Turning to MFCDLINESSHCCEATLECN, the amyloid nucleation score entry was “inactive”.

Substance MFIFGGISFVMVSYLNRAHT registered an amyloid nucleation score of 1.13 ± 0.1.

For the substance MFLRVSTTINAYFLRVRSLI, the amyloid nucleation score entry is “inactive”.

With MFLWRDCNGTN, the amyloid nucleation score result was “inactive”.

MFMVHQVDTERW: the amyloid nucleation score entry is “inactive”.

MGGLIFVSLKAWSIILHYNK: the amyloid nucleation score result is “inactive”.

On to MGHSDNGEDTSTWLCDRRVV, for which the amyloid nucleation score entry is “inactive”.

MGPRQKCALIATRKCQSVYL gave an amyloid nucleation score of -0.334 ± 1.1.

MGRAWTIQAGNVMCRVVGKH: the amyloid nucleation score is -0.283 ± 0.58.

As to MGRGWRHGCWLGRILRFWYD, the amyloid nucleation score entry was “inactive”.

On to MGSSFGGVLVSISVSWGCGF, for which the amyloid nucleation score was -0.012 ± 0.51.

In turn, MHFRTSDIPTTLELGLLGWP gave an amyloid nucleation score of 0.096 ± 0.47.

In the case of MHFVELLRLALVL, the amyloid nucleation score entry is “inactive”.

On to MHGTI, for which the amyloid nucleation score result is “inactive”.

For the substance MHLDYGC, the amyloid nucleation score result was “inactive”.

For the substance MHNRLVNDPACPVSTSSL, the amyloid nucleation score result is “inactive”.

Take MHYICAGSGSWAI: the amyloid nucleation score result was “inactive”.

For MIFKKDSLGMILHFHHYFYN, the amyloid nucleation score entry is “inactive”.

Turning to MIGLDDWVLALRVRRCSLLV, the amyloid nucleation score entry is “inactive”.

For the substance MILLGKNSLDPEGKGVCHVW, the amyloid nucleation score result is “inactive”.

For MINVPSVSYTMSSVIYTSFK, the amyloid nucleation score was 2.39 ± 0.055.

As for MIQGSVYPFHLCHLYDISHE, the amyloid nucleation score result was “inactive”.

Regarding MIRMIMLSRSDRPGVSRKLD, the amyloid nucleation score result was “inactive”.

Substance MISNHCYSLTMIAE registered an amyloid nucleation score of -0.432 ± 1.

For MISRSSNKGV, the amyloid nucleation score entry is “inactive”.

Take MIVWTHNYLEGELFVSLPLV: the amyloid nucleation score entry is “inactive”.

In the case of MIYGNWHIWFDVTAVKYEVG, the amyloid nucleation score entry was “inactive”.

On to MIYLYNKKYMSCRFDTCIIP, for which the amyloid nucleation score entry is “inactive”.

Take MKKWDNNSLVLPLKGSGKED: the amyloid nucleation score result was “inactive”.

Consider MLAGWSQFYGISRYLPENPV, for which the amyloid nucleation score result is “inactive”.

For the substance MLCAL, the amyloid nucleation score result is “inactive”.

In turn, MLCHLVMTSSLSRFLDRGFR returned an amyloid nucleation score of 1.26 ± 0.1.

As for MLDCF, the amyloid nucleation score result was “inactive”.

As for MLDFICAVFSVKNWVGICFV, the amyloid nucleation score result was “inactive”.

For the substance MLFPPLLGNWLDSGTTQVRR, the amyloid nucleation score result is “inactive”.

MLFYCFYINGRAARTYKRYS: the amyloid nucleation score result was “inactive”.

In the case of MLGDLAYCGYMSSAGVGSLI, the amyloid nucleation score entry is “inactive”.

Consider MLGVSYCRQVVYKENSYDFR, for which the amyloid nucleation score entry is “inactive”.

Turning to MLGWCYLMTTCE, the amyloid nucleation score result is “inactive”.

With MLHLGTCEIILAYHHDMKML, the amyloid nucleation score entry is “inactive”.

For MLIGWC, the amyloid nucleation score entry is “inactive”.

In turn, MLKPIMLILKSLEFVLEESS displayed an amyloid nucleation score of 0.985 ± 0.11.

In the case of MLNGVLNSKVPMNRRTSGNL, the amyloid nucleation score worked out at 0.537 ± 0.13.

Regarding MLNVINVYHVSSCGLRGNFE, the amyloid nucleation score was 2.63 ± 0.077.

On to MLREMY, for which the amyloid nucleation score result is “inactive”.

Consider MLYVLSYWLLKMPQMLNVNP, for which the amyloid nucleation score result was “inactive”.

MMGKRDALVFN: the amyloid nucleation score entry was “inactive”.

Turning to MMIIL, the amyloid nucleation score result was “inactive”.

With MMNGVGAWASFGLLNNYGGN, the amyloid nucleation score was found to be 0.291 ± 0.29.

Substance MMSDLILV came in with an amyloid nucleation score of -0.43 ± 1.

As to MMSDNDISLRRYFVQCLKSS, the amyloid nucleation score result is “inactive”.

For MMSFNVPLNAWVLSEFDTTY, the amyloid nucleation score entry was “inactive”.

For the substance MMSTTKSRDNSIKDQLSGSS, the amyloid nucleation score entry is “inactive”.
